Publication PMC6086891, “Adenosine Kinase couples sensing of cellular potassium depletion to purine metabolism” (Scientific Reports, 2018)

Substrate: Nc1ncnc2c1ncn2[C@@H]1O[C@H](COP(=O)(O)OP(=O)(O)OP(=O)(O)O)[C@@H](O)[C@H]1O
Experiment: purified protein
Type: biochemical, Mus musculus
Conditions: Mg2+ BS1 (ATP site); adenosine competes with ATP

B1: Adenosine Kinase (mADK) (Mus musculus) (protein)
chain: MAAADEPKPKKLKVEAPQALSENVLFGMGNPLLDISAVVDKDFLDKYSLKPNDQILAEDKHKELFDELVKKFKVEYHAGGSTQNSMKVAQWLIQEPHKAATFFGCIGIDKFGEILKRKAADAHVDAHYYEQNEQPTGTCAACITGGNRSLVANLAAANCYKKEKHLDLERNWVLVEKARVYYIAGFFLTVSPESVLKVARYAAENNRVFTLNLSAPFISQFFKEALMDVMPYVDILFGNETEAATFAREQGFETKDIKEIAKKAQALPKVNSKRQRTVIFTQGRDDTIVAAENDVTAFPVLDQNQEEIIDTNGAGDAFVGGFLSQLVSDKPLTECIRAGHYAASVIIRRTGCTFPEKPDFH
B1 was tested, and the Km was 2.1 µM.
